Assay results reported in patent US20250361268A1, “NOVEL ANTI-INFLAMMATORY PEPTIDE AND USE THEREOF” (NOVACELL TECHNOLOGY INC., priority 2022, published 2025).

Legend:
[1] = target: T1, formyl peptide receptor 2 (FPR2) (UniProt P25090 1-351, limits assumed); experiment: cell-based or functional assay
T1 sequence (looked up): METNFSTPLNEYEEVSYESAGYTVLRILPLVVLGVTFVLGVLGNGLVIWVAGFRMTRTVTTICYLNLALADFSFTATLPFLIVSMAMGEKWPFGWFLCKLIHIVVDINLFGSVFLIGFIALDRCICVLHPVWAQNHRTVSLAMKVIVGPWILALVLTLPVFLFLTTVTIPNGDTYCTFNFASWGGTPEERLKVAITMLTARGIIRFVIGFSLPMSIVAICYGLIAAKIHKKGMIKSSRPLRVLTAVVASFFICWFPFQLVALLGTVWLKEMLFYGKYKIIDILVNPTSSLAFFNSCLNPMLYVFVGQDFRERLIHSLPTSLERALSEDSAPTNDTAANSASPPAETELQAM

[2] = target: T2, FPR1 (UniProt P21462 1-350, limits assumed); experiment: cell-based or functional assay
T2 sequence (looked up): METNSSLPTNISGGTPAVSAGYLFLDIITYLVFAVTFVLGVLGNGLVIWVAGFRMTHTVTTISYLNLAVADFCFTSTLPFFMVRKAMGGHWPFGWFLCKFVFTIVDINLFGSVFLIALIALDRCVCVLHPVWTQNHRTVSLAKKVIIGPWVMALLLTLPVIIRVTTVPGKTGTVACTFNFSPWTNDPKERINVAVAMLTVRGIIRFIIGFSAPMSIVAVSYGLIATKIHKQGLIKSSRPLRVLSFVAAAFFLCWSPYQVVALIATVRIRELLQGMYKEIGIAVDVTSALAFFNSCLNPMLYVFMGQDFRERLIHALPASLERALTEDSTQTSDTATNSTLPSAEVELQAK

Row | Binder | EC50 for [Ca2+] [1] [µM] | EC50 for [Ca2+] [2] [µM]
1 | KWKYKVM (HELM PEPTIDE1{[ac].K.W.K.Y.K.V.[dM].[am]}$$$$V2.0; SMILES CSCC[C@@H](NC(=O)[C@@H](NC(=O)[C@H](CCCCN)NC(=O)[C@H](Cc1ccc(O)cc1)NC(=O)[C@H](CCCCN)NC(=O)[C@H](Cc1c[nH]c2ccccc12)NC(=O)[C@H](CCCCN)NC(C)=O)C(C)C)C(N)=O) [peptide of SEQ ID NO 4] | < 0.01 | > 10
2 | HMRYKYM (HELM PEPTIDE1{[CCCC(=O)[*:2]].H.M.R.Y.K.Y.[dM].[am]}$$$$V2.0; SMILES CCCC(=O)N[C@@H](Cc1c[nH]cn1)C(=O)N[C@@H](CCSC)C(=O)N[C@@H](CCCNC(=N)N)C(=O)N[C@@H](Cc1ccc(O)cc1)C(=O)N[C@@H](CCCCN)C(=O)N[C@@H](Cc1ccc(O)cc1)C(=O)N[C@H](CCSC)C(N)=O) [peptide of SEQ ID NO 45] | < 0.01 | > 10
3 | PMRYKYM (HELM PEPTIDE1{P.M.R.Y.K.Y.[dM].[am]}$$$$V2.0; N-terminus assumed; SMILES CSCC[C@H](NC(=O)[C@@H]1CCCN1)C(=O)N[C@@H](CCCNC(=N)N)C(=O)N[C@@H](Cc1ccc(O)cc1)C(=O)N[C@@H](CCCCN)C(=O)N[C@@H](Cc1ccc(O)cc1)C(=O)N[C@H](CCSC)C(N)=O) [peptide of SEQ ID NO 46] | < 0.01 | > 10
4 | RMRYKVM (HELM PEPTIDE1{R.M.R.Y.K.V.[dM].[am]}$$$$V2.0; N-terminus assumed; SMILES CSCC[C@H](NC(=O)[C@@H](N)CCCNC(=N)N)C(=O)N[C@@H](CCCNC(=N)N)C(=O)N[C@@H](Cc1ccc(O)cc1)C(=O)N[C@@H](CCCCN)C(=O)N[C@H](C(=O)N[C@H](CCSC)C(N)=O)C(C)C) [peptide of SEQ ID NO 5] | < 0.01 | > 10
5 | PMRYKYM (HELM PEPTIDE1{[CCCC(=O)[*:2]].P.M.R.Y.K.Y.[dM].[am]}$$$$V2.0; SMILES CCCC(=O)N1CCC[C@H]1C(=O)N[C@@H](CCSC)C(=O)N[C@@H](CCCNC(=N)N)C(=O)N[C@@H](Cc1ccc(O)cc1)C(=O)N[C@@H](CCCCN)C(=O)N[C@@H](Cc1ccc(O)cc1)C(=O)N[C@H](CCSC)C(N)=O) [peptide of SEQ ID NO 47] | < 0.01 | > 10
6 | RMRYKPM (HELM PEPTIDE1{R.M.R.Y.K.P.[dM].[am]}$$$$V2.0; N-terminus assumed; SMILES CSCC[C@H](NC(=O)[C@@H](N)CCCNC(=N)N)C(=O)N[C@@H](CCCNC(=N)N)C(=O)N[C@@H](Cc1ccc(O)cc1)C(=O)N[C@@H](CCCCN)C(=O)N1CCC[C@H]1C(=O)N[C@H](CCSC)C(N)=O) [peptide of SEQ ID NO 50] | < 0.01 | > 10
7 | RMRYKPM (HELM PEPTIDE1{[ac].R.M.R.Y.K.P.[dM].[am]}$$$$V2.0; SMILES CSCC[C@H](NC(=O)[C@H](CCCNC(=N)N)NC(C)=O)C(=O)N[C@@H](CCCNC(=N)N)C(=O)N[C@@H](Cc1ccc(O)cc1)C(=O)N[C@@H](CCCCN)C(=O)N1CCC[C@H]1C(=O)N[C@H](CCSC)C(N)=O) [peptide of SEQ ID NO 51] | < 0.01 | > 10
8 | RMRYKPM (HELM PEPTIDE1{[CCCC(=O)[*:2]].R.M.R.Y.K.P.[dM].[am]}$$$$V2.0; SMILES CCCC(=O)N[C@@H](CCCNC(=N)N)C(=O)N[C@@H](CCSC)C(=O)N[C@@H](CCCNC(=N)N)C(=O)N[C@@H](Cc1ccc(O)cc1)C(=O)N[C@@H](CCCCN)C(=O)N1CCC[C@H]1C(=O)N[C@H](CCSC)C(N)=O) [peptide of SEQ ID NO 52] | < 0.01 | > 10
9 | RMRYKPM (HELM PEPTIDE1{[CCCCCCCC(=O)[*:2]].R.M.R.Y.K.P.[dM].[am]}$$$$V2.0; SMILES CCCCCCCC(=O)N[C@@H](CCCNC(=N)N)C(=O)N[C@@H](CCSC)C(=O)N[C@@H](CCCNC(=N)N)C(=O)N[C@@H](Cc1ccc(O)cc1)C(=O)N[C@@H](CCCCN)C(=O)N1CCC[C@H]1C(=O)N[C@H](CCSC)C(N)=O) [peptide of SEQ ID NO 53] | < 0.01 | > 10
10 | MRYKPM (HELM PEPTIDE1{M.R.Y.K.P.[dM].[am]}$$$$V2.0; N-terminus assumed; SMILES CSCC[C@H](N)C(=O)N[C@@H](CCCNC(=N)N)C(=O)N[C@@H](Cc1ccc(O)cc1)C(=O)N[C@@H](CCCCN)C(=O)N1CCC[C@H]1C(=O)N[C@H](CCSC)C(N)=O) [peptide of SEQ ID NO 54] | < 0.01 | > 10
11 | MRYKPM (HELM PEPTIDE1{[ac].M.R.Y.K.P.[dM].[am]}$$$$V2.0; SMILES CSCC[C@H](NC(C)=O)C(=O)N[C@@H](CCCNC(=N)N)C(=O)N[C@@H](Cc1ccc(O)cc1)C(=O)N[C@@H](CCCCN)C(=O)N1CCC[C@H]1C(=O)N[C@H](CCSC)C(N)=O) [peptide of SEQ ID NO 55] | < 0.01 | > 10
12 | RMRYKVM (HELM PEPTIDE1{[ac].R.M.R.Y.K.V.[dM].[am]}$$$$V2.0; SMILES CSCC[C@H](NC(=O)[C@H](CCCNC(=N)N)NC(C)=O)C(=O)N[C@@H](CCCNC(=N)N)C(=O)N[C@@H](Cc1ccc(O)cc1)C(=O)N[C@@H](CCCCN)C(=O)N[C@H](C(=O)N[C@H](CCSC)C(N)=O)C(C)C) [peptide of SEQ ID NO 6] | < 0.01 | > 10
13 | MRYKPM (HELM PEPTIDE1{[CCCC(=O)[*:2]].M.R.Y.K.P.[dM].[am]}$$$$V2.0; SMILES CCCC(=O)N[C@@H](CCSC)C(=O)N[C@@H](CCCNC(=N)N)C(=O)N[C@@H](Cc1ccc(O)cc1)C(=O)N[C@@H](CCCCN)C(=O)N1CCC[C@H]1C(=O)N[C@H](CCSC)C(N)=O) [peptide of SEQ ID NO 56] | < 0.01 | > 10
14 | MRYKPM (HELM PEPTIDE1{[CCCCCCCC(=O)[*:2]].M.R.Y.K.P.[dM].[am]}$$$$V2.0; SMILES CCCCCCCC(=O)N[C@@H](CCSC)C(=O)N[C@@H](CCCNC(=N)N)C(=O)N[C@@H](Cc1ccc(O)cc1)C(=O)N[C@@H](CCCCN)C(=O)N1CCC[C@H]1C(=O)N[C@H](CCSC)C(N)=O) [peptide of SEQ ID NO 57] | < 0.01 | > 10
15 | HMRYKPM (HELM PEPTIDE1{H.M.R.Y.K.P.[dM].[am]}$$$$V2.0; N-terminus assumed; SMILES CSCC[C@H](NC(=O)[C@@H](N)Cc1c[nH]cn1)C(=O)N[C@@H](CCCNC(=N)N)C(=O)N[C@@H](Cc1ccc(O)cc1)C(=O)N[C@@H](CCCCN)C(=O)N1CCC[C@H]1C(=O)N[C@H](CCSC)C(N)=O) [peptide of SEQ ID NO 58] | < 0.01 | > 10
16 | HMRYKPM (HELM PEPTIDE1{[ac].H.M.R.Y.K.P.[dM].[am]}$$$$V2.0; SMILES CSCC[C@H](NC(=O)[C@H](Cc1c[nH]cn1)NC(C)=O)C(=O)N[C@@H](CCCNC(=N)N)C(=O)N[C@@H](Cc1ccc(O)cc1)C(=O)N[C@@H](CCCCN)C(=O)N1CCC[C@H]1C(=O)N[C@H](CCSC)C(N)=O) [peptide of SEQ ID NO 59] | < 0.01 | > 10
17 | HMRYKPM (HELM PEPTIDE1{[CCCC(=O)[*:2]].H.M.R.Y.K.P.[dM].[am]}$$$$V2.0; SMILES CCCC(=O)N[C@@H](Cc1c[nH]cn1)C(=O)N[C@@H](CCSC)C(=O)N[C@@H](CCCNC(=N)N)C(=O)N[C@@H](Cc1ccc(O)cc1)C(=O)N[C@@H](CCCCN)C(=O)N1CCC[C@H]1C(=O)N[C@H](CCSC)C(N)=O) [peptide of SEQ ID NO 60] | < 0.01 | > 10
18 | HMRYKPM (HELM PEPTIDE1{[CCCCCCCC(=O)[*:2]].H.M.R.Y.K.P.[dM].[am]}$$$$V2.0; SMILES CCCCCCCC(=O)N[C@@H](Cc1c[nH]cn1)C(=O)N[C@@H](CCSC)C(=O)N[C@@H](CCCNC(=N)N)C(=O)N[C@@H](Cc1ccc(O)cc1)C(=O)N[C@@H](CCCCN)C(=O)N1CCC[C@H]1C(=O)N[C@H](CCSC)C(N)=O) [peptide of SEQ ID NO 61] | < 0.01 | > 10
19 | PMRYKPM (HELM PEPTIDE1{P.M.R.Y.K.P.[dM].[am]}$$$$V2.0; N-terminus assumed; SMILES CSCC[C@H](NC(=O)[C@@H]1CCCN1)C(=O)N[C@@H](CCCNC(=N)N)C(=O)N[C@@H](Cc1ccc(O)cc1)C(=O)N[C@@H](CCCCN)C(=O)N1CCC[C@H]1C(=O)N[C@H](CCSC)C(N)=O) [peptide of SEQ ID NO 62] | < 0.01 | > 10
